Data as given in PMC9317006, “A Fiber-Based SPR Aptasensor for the In Vitro Detection of Inflammation Biomarkers”.

Legend:
fibrinogen = assay: fiber-based SPR; details: 100 nM protein; 3' thiol; Detection buffer: 25 mM Tris base, 192 mM glycine, 0.05% Tween 20, 0.1% BSA, 2 mM CaCl2, 100 mM NaCl, pH 8.0; binding temperature not stated (RI calibration at …)
hemoglobin = assay: fiber-based SPR; details: 100 nM protein; 3' thiol; Detection buffer: 25 mM Tris base, 192 mM glycine, 0.05% Tween 20, 0.1% BSA, 2 mM CaCl2, 100 mM NaCl, pH 8.0; binding temperature not stated (RI calibration at …)
C-reactive protein (CRP) = molecular target: T1, C-reactive protein (CRP) (human, UniProt P02741 19-224); assay: fiber-based SPR; LOD 1.7 nM (not a Kd); aptamer loaded at 100 nM; Detection buffer: 25 mM Tris base, 192 mM glycine, 0.05% Tween 20, 0.1% BSA, 2 mM CaCl2, 100 mM NaCl, pH 8.0; binding temperature not stated (RI calibration at); details: protein: recombinant; chain copies: 5
T1 sequence: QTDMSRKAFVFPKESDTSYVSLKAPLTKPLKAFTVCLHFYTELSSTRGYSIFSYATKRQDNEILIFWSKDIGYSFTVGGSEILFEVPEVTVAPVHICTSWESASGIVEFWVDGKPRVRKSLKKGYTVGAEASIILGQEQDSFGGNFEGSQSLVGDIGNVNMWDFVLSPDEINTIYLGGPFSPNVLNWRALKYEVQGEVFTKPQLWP

[1] = molecular target: cardiac troponin I (cTn-I) (human, UniProt P19429 1-210); assay: fiber-based SPR; LOD 2.5 nM (not a Kd); aptamer loaded at 200 nM; Detection buffer: 25 mM Tris base, 192 mM glycine, 0.05% Tween 20, 0.1% BSA, 2 mM CaCl2, 100 mM NaCl, pH 8.0; binding temperature not stated (RI calibration at); details: protein: recombinant
Sequence of cardiac troponin I (cTn-I) (P19429 whole entry): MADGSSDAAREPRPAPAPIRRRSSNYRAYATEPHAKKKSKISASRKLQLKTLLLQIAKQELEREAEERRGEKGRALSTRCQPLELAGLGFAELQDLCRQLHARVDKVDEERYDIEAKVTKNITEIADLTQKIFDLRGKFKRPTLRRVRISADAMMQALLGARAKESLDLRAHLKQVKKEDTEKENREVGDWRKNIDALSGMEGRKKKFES

Molecule	binding signal (% of specific response) (fibrinogen)	binding signal (% of specific response) (hemoglobin)	binding result (C-reactive protein (CRP))	binding result [1]
GGCAGGAAGACAAACACGATGGGGGGGTATGATTTGATGTGGTTGTGCATGATCGTGGTCTGTGGTGCTGTTTTT [CRP aptamer]	< 20	< 20	–	–
CGAAGGGGATTCGAGGGGTGATTGCGTGCTCCATTTGGTGTTTTT [cTn-I aptamer]	< 20	< 20	–	–
CRP aptamer (ssDNA, 3' thiol) DNA: GGCAGGAAGACAAACACGATGGGGGGGTATGATTTGATGTGGTTGTGCATGATCGTGGTCTGTGGTGCTGTTTTT	–	–	binds	–
CGAAGGGGATTCGAGGGGTGATTGCGTGCTCCATTTGGTGTTTTT (ssDNA, 3' thiol) [cTn-I aptamer]	–	–	–	binds
